In one test the target is T1, mouse PD-1 protein (mouse, UniProt Q02242 25-167).
T1 construct: Detected with anti human-Fc cryptate, so probably Fc tagged; also called mouse PD-1 (R&D Systems cat no. 1021-PD)
T1 sequence (looked up): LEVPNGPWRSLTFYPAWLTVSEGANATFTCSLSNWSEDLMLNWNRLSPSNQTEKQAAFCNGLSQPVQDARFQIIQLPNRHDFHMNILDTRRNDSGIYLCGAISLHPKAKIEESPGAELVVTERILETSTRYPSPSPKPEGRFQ
Description: HTRF binding, 2 nM mouse PD-1. The protocol:
(§1) e) Species Cross Reactivity Testing Purified […] were tested for their ability to bind to human PD-1 (R&D Systems cat no. 1086-PD), cynomolgus PD-1 (Acro Biosystems cat no. PD-1-05254) and mouse PD-1 (R&D Systems cat no. 1021-PD) in an HTRF Binding assay format. All reagents and serially diluted VH were prepared in assay buffer containing PBS, 0.1% BSA and 0.4M Potassium Fluoride. Samples or assay buffer (non-specific binding) were incubated with 2 nM human/cynomolgus or mouse PD-1, 1 nM Anti human-Fc Cryptate PAb (Cisbio cat. no. 61HFCKLB) and 30 nM anti His-D2 (CisBio cat no 61HISDLA) in black 384-shallow well assay plates for a minimum of 3 hours at room temperature. Time-resolved fluorescent emission at 620 nm and 665 nm was measured following excitation at 337 nm on the BMG PHERAstar plate reader. The HTRF ratio were calculated ((665 nm emission/620 nm emission)*10000) and the data corrected for (non-specific binding) to give the specific binding signal.

Test [1] addresses T2, human PD-1 expressed on cells (CHO human PD-1 cells) (human, UniProt Q15116 21-288).
T2 construct: also called CHO TREX human PD-1 cell line; CHO PD-1
Description: FMAT inhibition; 100 pM PD-L1-Fc on CHO human PD-1 cells.

Test [2] addresses T3, cynomolgus PD-1 recombinant protein (cynomolgus, UniProt B0LAJ3 25-170).
T3 construct: Detected with anti human-Fc cryptate, so probably Fc tagged; also called cyno PD-1; cynomolgus PD-1 (Acro Biosystems cat no. PD-1-05254); not shown: The vendor's carrier tag; It is probably a human Fc, since detection used anti human-Fc cryptate
Briefly: HTRF binding, 2 nM PD-1, anti-Fc cryptate and anti-His-D2. How it is done: as §1

Test [3] addresses T4, recombinant human PD-1 Fc chimera (human, UniProt Q15116 25-167).
T4 construct: Bought protein; also called human PD-1-huFc; huPD-1-Fc; not shown: human Fc
The description is as above. How it is done:
as §1

The target in test [4] is T2, human PD-1 expressed on cells (CHO …). Description: FMAT 1.57 epitope competition on CHO human PD-1 cells; competitor 1.57-Strep; sample kept 4 days in mouse serum. How it is done:
(§2) For the epitope competition assay reagents were prepared in FMAT assay buffer. […] Plates were incubated for a minimum of 1.5 hours at room temperature then fluorescence measured in the FL2 (502 nm-537 nm) and FL5 (677-800 nm) channels on the Mirrorball plate reader (TTP) following excitation at 488 nm and 640 nm. Data was expressed as a % of the total binding control (i.e. % control) after subtraction of the background signal determined from the non-specific binding control wells.
(§3) Serum stability of VH and multivalent VH constructs was assessed by measurement of their activity following incubation for 0, 1, 4 or 7 days in mouse serum (Sigma M5905).

The target is the same in test [5]. Briefly: FMAT 1.57 epitope competition on CHO human PD-1 cells; competitor 1.57-Strep; sample kept 7 days in mouse serum. The protocol:
as §2, §3

T2 sequence (Q15116 21-288): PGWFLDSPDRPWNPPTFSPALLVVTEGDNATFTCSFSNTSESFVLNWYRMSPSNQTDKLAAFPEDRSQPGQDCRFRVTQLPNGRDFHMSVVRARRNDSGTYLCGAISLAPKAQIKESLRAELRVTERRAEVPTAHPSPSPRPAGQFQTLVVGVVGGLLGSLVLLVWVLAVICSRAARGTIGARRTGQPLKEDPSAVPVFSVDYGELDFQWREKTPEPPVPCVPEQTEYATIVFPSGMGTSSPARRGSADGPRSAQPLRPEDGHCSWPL
T4 sequence (Q15116 25-167 limits assumed, change not shown): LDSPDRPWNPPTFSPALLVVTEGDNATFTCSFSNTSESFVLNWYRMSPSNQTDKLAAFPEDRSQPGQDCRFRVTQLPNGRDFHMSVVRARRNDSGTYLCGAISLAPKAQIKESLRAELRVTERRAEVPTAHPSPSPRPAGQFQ
T3 sequence (B0LAJ3 entry or part of it limits assumed): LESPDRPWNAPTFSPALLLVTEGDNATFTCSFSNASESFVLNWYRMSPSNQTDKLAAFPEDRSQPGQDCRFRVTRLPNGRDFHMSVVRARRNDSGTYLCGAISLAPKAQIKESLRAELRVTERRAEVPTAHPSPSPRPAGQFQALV

B1: Humabody® 1.92 (VHH)
VHH: EVQLVESGGGLVKPGGSLRLSCAASGFTFSDESMTWMRQAPGKGLEWVSYISSGGGVKFYADSVKGRFTISRDNAKNSLYLQMNSLRAEDTAVYYCAREAPLRLGESPHDAFDISGQGTMVTVSS
notes: human VH single domain antibody
For the molecule B1, the binding result with mouse PD-1 protein was “no binding”. The IC50 – broadly, the concentration that inhibits the measured activity by half – in test [1] turned out to be 2.8 nM; in test [4], 4.7 nM; in test [5], 5.2 nM. Moreover, the EC50 (commonly the concentration needed to bring the measured effect to its halfway point) was found to be 4.1 nM in test [2] and 2.6 nM in test [3].

(Values after US20200239573A1 (CRESCENDO BIOLOGICS, published 2020).)
